{"source": "ChEMBL document CHEMBL4402607", "about": "“Molecular Basis for Omapatrilat and Sampatrilat Binding to Neprilysin-Implications for Dual Inhibitor Design with Angiotensin-Converting Enzyme” (J Med Chem, 2020)", "proteins": {"B1": {"name": "Angiotensin-converting enzyme (Homo sapiens), P12821 (protein)", "chain": "MGAASGRRGPGLLLPLPLLLLLPPQPALALDPGLQPGNFSADEAGAQLFAQSYNSSAEQVLFQSVAASWAHDTNITAENARRQEEAALLSQEFAEAWGQKAKELYEPIWQNFTDPQLRRIIGAVRTLGSANLPLAKRQQYNALLSNMSRIYSTAKVCLPNKTATCWSLDPDLTNILASSRSYAMLLFAWEGWHNAAGIPLKPLYEDFTALSNEAYKQDGFTDTGAYWRSWYNSPTFEDDLEHLYQQLEPLYLNLHAFVRRALHRRYGDRYINLRGPIPAHLLGDMWAQSWENIYDMVVPFPDKPNLDVTSTMLQQGWNATHMFRVAEEFFTSLELSPMPPEFWEGSMLEKPADGREVVCHASAWDFYNRKDFRIKQCTRVTMDQLSTVHHEMGHIQYYLQYKDLPVSLRRGANPGFHEAIGDVLALSVSTPEHLHKIGLLDRVTNDTESDINYLLKMALEKIAFLPFGYLVDQWRWGVFSGRTPPSRYNFDWWYLRTKYQGICPPVTRNETHFDAGAKFHVPNVTPYIRYFVSFVLQFQFHEALCKEAGYEGPLHQCDIYRSTKAGAKLRKVLQAGSSRPWQEVLKDMVGLDALDAQPLLKYFQPVTQWLQEQNQQNGEVLGWPEYQWHPPLPDNYPEGIDLVTDEAEASKFVEEYDRTSQVVWNEYAEANWNYNTNITTETSKILLQKNMQIANHTLKYGTQARKFDVNQLQNTTIKRIIKKVQDLERAALPAQELEEYNKILLDMETTYSVATVCHPNGSCLQLEPDLTNVMATSRKYEDLLWAWEGWRDKAGRAILQFYPKYVELINQAARLNGYVDAGDSWRSMYETPSLEQDLERLFQELQPLYLNLHAYVRRALHRHYGAQHINLEGPIPAHLLGNMWAQTWSNIYDLVVPFPSAPSMDTTEAMLKQGWTPRRMFKEADDFFTSLGLLPVPPEFWNKSMLEKPTDGREVVCHASAWDFYNGKDFRIKQCTTVNLEDLVVAHHEMGHIQYFMQYKDLPVALREGANPGFHEAIGDVLALSVSTPKHLHSLNLLSSEGGSDEHDINFLMKMALDKIAFIPFSYLVDQWRWRVFDGSITKENYNQEWWSLRLKYQGLCPPVPRTQGDFDPGAKFHIPSSVPYIRYFVSFIIQFQFHEALCQAAGHTGPLHKCDIYQSKEAGQRLATAMKLGFSRPWPEAMQLITGQPNMSASAMLSYFKPLLDWLRTENELHGEKLGWPQYNWTPNSARSEGPLPDSGRVSFLGLDLDAQQARVGQWLLLFLGIALLVATLGLSQRLFSIRHRSLHRHSHGPQFGSEVELRHS"}}, "substrate": "N=C(N)NCCC[C@H](NC(=O)[C@H](Cc1ccccc1)NC(=O)[C@@H]1CCCN1C(=O)[C@H](CO)NC(=O)[C@H](Cc1ccccc1)NC(=O)CNC(=O)[C@@H]1CCCN1C(=O)[C@@H]1CCCN1C(=O)[C@@H](N)CCCNC(=N)N)C(=O)O", "assay": "Substrate activity at human ACE expressed in CHO cells by HPLC analysis", "assay_type": "cell-based", "data": [{"protein": "B1", "values": [{"measurement": "Km", "result": 0.18, "unit": "µM"}]}]}
